Measured values as given in patent publication US20250041390.

Test system: thrombin-cleavable lipopeptide conjugate (TCP-stearate)

thrombin
MALDI-TOF mass spectroscopy of TCP-stearate before and after exposure to thrombin (30 minutes, 250 nM): thrombin could efficiently cleave the conjugate, evidenced by the fact that after thrombin exposure very little of the TCP-stearate conjugate remains (peak at 1046 m/z), whereas 2 new degradation peaks appear (495 and 534 m/z)
